From a protein production outcome set (Wang et al. 2014)

Experiment: label from the status in PepcDB records

Sequence	protein production
MKTLVHLSDLHFGKTESHLVDAIAAEVRAVDSDLLVVSGDLTQRARKDEFLQARAFLDSLPGPRIVVPGNHDVPLWNVFARAMTPLSRYRRYIEADTDPFYADSEVAVVGINTARSLTIKNGRINVRQLKAATEKFAYMSDDITRIVVTHHPFEGLDLESDDGIVARADLAMDAFSRSGVDIILSGHQHLHRAGSSARRYLIDGYAALLVQAGTAVSSRVRQAANSFNIIRIEHPRISIECRAWQSLQSGFETSASYSFRQGSGGWEPALEHHHHHH	failed
MAEPKQSSLSEVKTNVIGSRKEEKESMFHGKETHGRSEDIDEKTRVDDVKGPGVLGRMMEEMEAIVDAVTPNKSSDK	failed
MGKTMITRALWSYAHRYRPQERWGILKPMQSGTAVEIGDGDYYCQTLPLEQTPREVCPLSFAAPLAPPIAAQLENRRIDLAPLWQTYQQLQERFDYLLVEGIGGLGSPITWEWTVADLAAAWKLPIVLVATVRLGAIAQIVANIALARQYQLVIRGLILNCVSPCSDAEIEQWTPPVFLSRFTQVPVLGVLPYGQHSNEQLAAMVAEWPLDLLWR	failed
LERMVQTRRGLEIIIDAASTLYDFKSMQRLAEGVLTQLASLLNVDCAGILVLRDAGDELAVLAGSGCYSRFIGTTGHSNSLDPDLRQMVEEAFRRRKHEFADHRTVLYIRTGSGREVVVLLQAERELSDTDRSLVEIFGSRLSIAFDNVILYRQLHEANTQ	failed
MILLEGSYREMGRQYGGLMKTELLSEYAMLTKTLEDRGYSLDYLRWYASAGTQFQPERMKEITRGMAETTGLSEADLSILYYGPALYISMPAGCSYLAVWDTYTTDGSVVLSRNWDLPDLLDPFNPYYVLAVCRPTDGSNGVATFGPAGSRPETLMNSAGLFIADDNSGLAPVGQDDRPDLISEFFRLMLDYSDLDGLKTGVLTTRPDVAWIVDVGGPDGAYVFEVGLNETKVRIGDGVVAAANHFVDPSWDLTTPPGEHSLTRYANLLSQAEAAKGSIDAEEMMQIRDVLMTDDGATFRHSELFGYPYSSNHQVVFVPATRTLWMKVIDLDWQKVELAPLFAM	failed
MNYDRYYTCDLVNGEGVRVTLFVTGCAHACDGCHNRSTWDRKSGRPFTPEAREELLRHCASHDGLSLSGGDPLLPANRDEILALCRMFKQRYPQKNIWLWTGYDYEEVRELEILQFVDVLIDGRYRQDLPTSKPWRGSDNQRLIRLGAGSGAAVAAVGAADVIAFEA	failed
MNKRLFYYLFAVLCTVTLFTSCSDDDGDDTPTVIPIEQEIAGDYKGTMDVYYVGVPDPIASGLSQKVYVTKASDTAVKLELRDFVFFLGSEELNLGTIAVENCPVTVEGTSYKFSGNQKMTLLVGDCDVAVSGTIGSGNLAMIVDVKVGGGTLQVKVDYKGTKLAGTESTEAKILSFTFDKSVEANAVVFSEPIVNEEDGTIVFEVLKDVTTDDLKKLVPTIEVSAKATVTPASGATVDFSSNKAIFTVVAEDGSSKIYTASISGRAFVVSYDFEEWDPVTHKPMLGNEETFTTPTGWCTSNYGIVEMGMFKPMLGVSGWLVTEESEGHNGKSALLRTINSKGGVGGLIPTITTGSLFLGTWSTNAGNTLNSTKFGNQFNNSLGRPVAVKGWYKYESGKDFYTCESDATDKATIDVSKGEYADQYSIKVSLYTTEEYDETGFSDYLTGESGDNNFYTSSRVVAKGGVEGGSTDGQWKEFTITLDYGDAEFDINQKYRFAIVCSSSKEGDKFWGAPESKLWVDDIEVIYKK	failed
MNLILYLVTVFVALFAMVNPIGALPVLVSVTEGYSKDDFERVVRYAAMSEALMLFSFMLIGIYIFEVLGININDFKVAGGVLLFKVAFDMLQGRTSTTKLTPAETEESIERTSIGIAPIGTPLLAGPGSITAAIIYFNSYSVNIPEKIAVVISVSLVVVISYFILHYSSVLFKYLGKTGSLIISRIMGLLLAAIAVDFMVTGLAFIVKSITGV	failed
MKGRWVKYLLMGTVVAMLAACSSKPTDRGQQYKDGKFTQPFSLVNQPDAVGAPINAGDFAEQINHIRNSSPRLYGNQSNVYNAVQEWLRAGGDTRNMRQFGIDAWQMEGADNYGNVQFTGYYTPVIQARHTRQGEFQYPIYRMPPKRGRLPSRAEIYAGALSDKYILAYSNSLMDNFIMDVQGSGYIDFGDGSPLNFFSYAGKNGHAYRSIGKVLIDRGEVKKEDMSMQAIRHWGETHSEAEVRELLEQNPSFVFFKPQSFAPVKGASAVPLVGRASVASDRSIIPPGTTLLAEVPLLDNNGKFNGQYELRLMVALDVGGAIKGQHFDIYQGIGPEAGHRAGWYNHYGRVWVLKTAPGAGNVFSG	not failed
MTQTGSARFEGDSWDLASSVGLTATMVAAARAVAGRAPGALVNDQFAEPLVRAVGVDFFVRMASGELDPDELAEDEANGLRRFADAMAIRTHYFDNFFLDATRAGIRQAVILASGLDSRAYRLRWPAGTIVFEVDQPQVIDFKTTTLAGLGAAPTTDRRTVAVDLRDDWPTALQKAGFDNAQRTAWIAEGLLGYLSAEAQDRLLDQITAQSVPGSQFATEVLRDINRLNEEELRGRMRRLAERFRRHGLDLDMSGLVYFGDRTDARTYLADHGWRTASASTTDLLAEHGLPPIDGDDAPFGEVIYVSAELKQKHQDTR	not failed
MRKILVVGAGQSGLQLALGLQSHGYEVTLMSNRTADEIRSGRVMSTQCMFDTALGHERDLQLNFWESQAPKIEGLGVSVAAPGSFDPGPSQRAIDWVGKLDGYAQSVDQRVKMAGWMETFAQRGGQLVIHGAAVSDLDYFSRAYDLVLVSAGKGELVSMFGRDASRSPYSEPQRALAVAYVHGLGPRPEHPDYDAVRCNLVPGVGELFVMPTLTTSGRADILFWEGIPGGPLDVFKGVNDPGEHLSLTLELMERFTPWEYARATKVELTDGNGTLAGRYAPTVRNPVGRLPGGGLVLGVADVVVANDPITGQGSNSASKCAAAYLASIVEHGEKEFDETWMRATFDRYWDTAQHVTKWTNAMLGVPPEHVLNLIGAAGALQPVANRFANGFDNPADFENFFYEPEKTEAYLASVAGS	failed
MVRLFGPLVGLFFAVALLWSFGNGAYVAITEPAAPTAESVFHKHPKELDLASNGAFGRFDKQQLQRGFQVYKEVCATCHSLKQIAFRDLAALGYSEAEVKAIAKGWPTKAATFNPVTGDRGERDNIPSDRIPAVYYAGQGVPPDLSLMTKARHDGGAYVYSLLTGYAEQPAELLKQFPDAKTPDGLHYNPYFANLNLAMPAPLTTDGQVTYSDGTKASVDQMAKDVSAFLVWTAEPKLDKRKQTGWAVLGFLLVATVLAYLAKKNVWADKH	failed
MFPLTEENKHVAQLLLNTGTCPRCIFRFCGVDFHAPYKLPYKELLNELQKFLETEKDELILEVMNPPPKKIRLQELEDSIDNLSQNGEGRISVSHVGSTASKNSNLNVCNVCLGILQEFCEKDFIKKVCQKVEASGFEFTSLVFSVSFPPQLSVREHAAWLLVKQEMGKQSLSLGRDDIVQLKEAYKWITHPLFSEELGVPIDGKSLFEVSVVFAHPETVEDCHFLAAICPDCFKPAKNKQSVFTRMAVMKALNKIKEEDFLKQFPCPPNSPKAVCAVLEIECAHGAVFVAGRYNKYSRNLPQTPWIIDGERKLESSVEELISDHLLAVFKAESFNFSSSGREDVDVRTLGNGRPFAIELVNPHRVHFTSQEIKELQQKINNSSNKIQVRDLQLVTREAIGHMKEGEEEKTKTYSALIWTNKAIQKKDIEFLNDIKDLKIDQKTPLRVLHRRPLAVRARVIHFMETQYVDEHHFRLHLKTQAGTYIKEFVHGDFGRTKPNIGSLMNVTADILELDVESVDVDWPPALDD	failed
MTWKPNVTVAAVIEQDDKYLLVEEIPRGTAIKLNQPAGHLEPGESIIQACSREVLEETGHSFLPEVLTGIYHWTCASNGTTYLRFTFSGQVVSFDPDRKLDTGIVRAAWFSIDEIRAKQAMHRTPLVMQCIEDYHAGKRYPLDILQYYD	not failed
MTLPRRSGIRALPARGPTMESILGSFLLVAASEMGDKTQLLAFSLATRFRKPWPIMAGILVATLANHGLASSLGAWISANVPARMLAGVLALTFLMFGLWTLRPDSLEASKGPERFGAFLTTTVLFFLAEMGDKTQLATVALAARYGDVIRVTAGTTLGMLAADGLAVFLGEKLAARVSSARIRWAAAGLFFLFGLISAWAAIFG	failed
MLIKLTGGTVYDPANGIDGQVRNLFIRDGRIVHSLNGATPDQEYDLRGKVVMAGAIDMHTHIGGGKVTIARNLLPELEHHHHHH	not failed
MPRNNKTSLIQKIASQAYATFTNCSSSAIEDNNKVFLEHQADLVALLSDIRAADLKIAPPTKVSTSSPSVPPVTYMHICETDVFSMGVFLLKSGASIPLHDHPGMHGMLKVLYGKVSIRCYDKLDKAESDTERHFDPPLLAFQGDDVRRAALRSSGQFSELSGPCVLSPFKDNLHEIDAVDGAAAFLDILAPPYDPDDGRDCHYYRVLQTAGKKSEQSGDDEAWLLEIPQPDDFWCGGEPYPGPEVTI	not failed
VEPVPDTHLRGITCLDHENEKVNMYCVSDDQLICALCKLVGRHRDHQVASLNDRFEKLKQTLEMNLTNLVK	not failed
MDDLNPLAGTAHLLEEVDKKLMVLLRDGRTLIGYLRSVDQFANLVLQRTIERIHVGNEYGDIPRGVFIIRGENVVLLGEIDREKEQKLPLKEISVDEILDAQRREQEQRQEKHRLVSKALKERGLAVDANIINEDFC	failed
MILRSWARGVTLATICMFSLSSGVILAKNNRPTPLPTYQYPDVYNNYLQPVATAIDYHSGMVYLFNYENDKLIIVDPTSLSGWPGNVPLQHTLVFPEGDKIFITSDNTEEHAAYIIILKVNDINWDAGTVSLAVETVVAADNPGTPTEFPFVEPVNNVQAIPNWLVGRGTTQIHGPTILPYSDFVYLTELTSDRIRVINRKTNEFVSGVDPIAIPGYTEQTHGINFNRSGTIGLGTGYFFDNSVIDVYKPNRETGELQTIGQIRLGDEKRHAAFTHFVYWLDERYAVTASMQFDKTSLTPTTTKKIIPPSVWLLDTLEGTATKILDHTNHANGKGIFRSPSDIAVVNGKLYIAEEDSLDYTFANDGYISVFDLTDRYKPRFLKRLKPGRELPTGYAVAHTISPTPDNRYLIVASWVSGYVLKIDTETDTVVKIWGPNDGLIKPHGIYTAGGLR	failed
MSTPYRPAMHHAWRLLPLGMAVASPLLAAEPLNLDAVNVTGFSEQESASDYRAGRASIYGLDQALLLDTPASVSVFSEALIKDRQAKLLSDVLRNDASVGEGYAPVGYYENFVVRGFSLNAANSYRINGRSIAGEQNVALENKQQVELLKGLSGLQSGVSEPGGVINYQTKRAQD	failed
MAETAETINTTISSPPPESESSTTISAMTDPTSQEAASKDTDLTKEAESEKKPGGISLRIWPPTQKTRDAVLNRLIETLSTESILSKRYGTLKSDDATTVAKLIEEEAYGVASNAVSSDDDGIKILELYSKEISKRMLESVKARSNASVGNGSVEDANTDASEVSKDDAGPASEEEKSEA	failed
MQDHIISFTAGILSVLSPCILPVIPVIFSESLIGNRKERFLFLSGFSSLFLFTIILTAIFTAAVNYYLLYLRVPASIMLIIMGLLVLSEKPLISIRTPPAENHVLMGLLTAIAWTPCYSPYLIGVIAYSAYTGIPGALVNMALYTLGLTITLIAVTLLAEPVLRRLLRGSRDIRRASGVLIVVAGIYMLYQLIPLP	failed
MKNVKFIKKSESVIGLWLPILVILILFAFLVAESVIMKDIILSNSVVALATAIMASAALVTILVSNRQVQLMARQQRLKAIEDRLEKFYIPLIKAFSSYVYTAQTEDEIETIITCRRYLAGNNLLRVLPMHFKFKADKIAGSANWTFYAKEDFEQWKEALDVLWEEFLEVLKEYYTLSGTEISLPEKPDWLIGYK	failed
